Here are results for one substance from article PMC8294589.

For this experiment, the target named is PP2A-B56γ1 holoenzyme (UniProt P30153).
Sequence of PP2A-B56γ1 holoenzyme (P30153 whole entry, chain 1 of 3, other chains not shown): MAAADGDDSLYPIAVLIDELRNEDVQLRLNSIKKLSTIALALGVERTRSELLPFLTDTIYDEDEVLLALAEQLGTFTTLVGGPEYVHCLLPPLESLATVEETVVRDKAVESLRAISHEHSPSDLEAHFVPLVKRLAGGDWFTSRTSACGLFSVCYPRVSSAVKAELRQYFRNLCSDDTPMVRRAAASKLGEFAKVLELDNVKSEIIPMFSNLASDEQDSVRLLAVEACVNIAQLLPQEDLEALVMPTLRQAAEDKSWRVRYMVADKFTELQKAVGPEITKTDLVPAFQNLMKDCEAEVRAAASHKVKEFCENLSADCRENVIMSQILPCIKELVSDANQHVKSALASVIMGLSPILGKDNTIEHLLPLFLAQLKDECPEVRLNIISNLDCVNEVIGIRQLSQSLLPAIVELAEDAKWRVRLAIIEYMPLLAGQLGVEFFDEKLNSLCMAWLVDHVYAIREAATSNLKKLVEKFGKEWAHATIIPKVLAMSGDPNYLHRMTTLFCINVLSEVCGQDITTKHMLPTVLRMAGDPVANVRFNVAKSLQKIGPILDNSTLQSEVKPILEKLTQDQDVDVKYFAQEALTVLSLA
Sequence of PP2A-B56γ1 holoenzyme (P67775 whole entry, chain 2 of 3, other chains not shown, further chain): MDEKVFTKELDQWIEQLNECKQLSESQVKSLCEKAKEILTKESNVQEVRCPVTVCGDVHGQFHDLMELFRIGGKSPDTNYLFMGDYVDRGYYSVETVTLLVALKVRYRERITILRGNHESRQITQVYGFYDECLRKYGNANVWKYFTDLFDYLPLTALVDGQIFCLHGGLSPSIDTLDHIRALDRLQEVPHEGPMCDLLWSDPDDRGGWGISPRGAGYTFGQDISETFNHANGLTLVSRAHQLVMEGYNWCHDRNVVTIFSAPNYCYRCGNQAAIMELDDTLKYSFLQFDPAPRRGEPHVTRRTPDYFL

Sequence of pS133-CREB (129–154) peptide (P16220 129-154): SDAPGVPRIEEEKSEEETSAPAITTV

With “pS133-CREB (129–154) peptide (from UniProt P16220-2 129-154)”, the Km of PP2A-B56γ1 holoenzyme phosphatase activity toward pS133-CREB (129–154), steady-state kinetics with a phosphate sensor (peptide 3.9 to 250 μM) is 10.3 μM.
